This series addresses coreTFIIH (7-subunit: XPB, XPD, p62, p52, p44, p34, p8);XPG (human;human) (UniProt P19447+P18074+P32780+Q92759+Q13888+Q13889+Q6ZYL4+P28715). In words: EMSA. Background: In EMSA bound probe runs differently from free probe, usually more slowly.

In turn, “TTTTTTTTTTTTTTTTTTTTTTTTTTTTTNTTTTTTTTTTGCCTCGCTGCCGTCGCCA / TGGCGACGGCAGCGAGGC [Chol11]” gave a binding signal (fold lower Kd than XPG alone) (cholesterol moiety at N (between S12 and S13), position 11 from ss/ds junction) of 8.

As to “TTTTTTTTTTTTTTTTTTTTTTTTTTTTTTTTTTTTNTTTGCCTCGCTGCCGTCGCCA / TGGCGACGGCAGCGAGGC [Chol4]”, the binding signal (fold lower Kd than XPG alone) (cholesterol moiety at N (between S10 and S11), position 4 from ss/ds junction) was found to be 7.

The values above are taken from article PMC9943652.
